The results in this text go back to patent publication US20240239884A1 (Merck Sharp & Dohme, published 2024).

For assay [1], the target named is T1, human IL-23 (human, UniProt P29460 23-328).
T1 construct: also called human IL-23 cytokine; human IL-23 protein
T1 sequence 1: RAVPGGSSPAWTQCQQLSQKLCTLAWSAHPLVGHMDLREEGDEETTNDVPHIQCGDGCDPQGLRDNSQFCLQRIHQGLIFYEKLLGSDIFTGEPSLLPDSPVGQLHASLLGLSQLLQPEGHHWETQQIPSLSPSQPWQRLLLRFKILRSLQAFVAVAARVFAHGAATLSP
T1 sequence 2: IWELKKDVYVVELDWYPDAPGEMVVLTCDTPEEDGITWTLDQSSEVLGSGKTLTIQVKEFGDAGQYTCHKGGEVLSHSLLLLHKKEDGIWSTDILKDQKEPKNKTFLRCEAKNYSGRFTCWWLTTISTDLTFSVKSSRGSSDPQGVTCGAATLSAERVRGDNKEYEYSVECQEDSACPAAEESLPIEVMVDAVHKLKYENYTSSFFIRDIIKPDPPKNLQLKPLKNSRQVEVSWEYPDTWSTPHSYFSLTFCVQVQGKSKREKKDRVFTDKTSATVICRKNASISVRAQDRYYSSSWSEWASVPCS
Kind of assay: equilibrium binding ELISA on plates coated with human IL-23; potency against reference material; storage at 5 C, 24 months (second Binding ELISA row). On the procedure: (§1) The affinity of hum13B8-b in the formulations of the present invention for human IL-23 is assessed in an equilibrium binding ELISA, where serial dilutions of reference material and test samples are applied to assay plates coated with human IL-23 cytokine. This assay may be used, for example, to assess retention of biological activity in various potential therapeutic formulations. Relative potency of the test sample is assessed by comparison of the dose response curve of the test sample to the dose response curve of reference material and calculated as percent of reference.
(§2) ELISAs are performed by methods well known in the art. Briefly, serial dilutions of hum13B8-b in a formulation of the present invention are added to wells of a microtiter plate that had been previously coated with human IL-23 protein and then blocked. After an incubation period, wells are washed and a peroxidase-conjugated goat anti-human IgG (Fc) detection antibody reagent is added. Wells are again washed, and a chemiluminescent peroxidase substrate is added. Signal is read out by chemiluminescence. […] Relative biological potency is calculated by comparing results obtained with test samples with a standard curve based on signal levels obtained with a reference sample. […]

In assay [2] the target is T1, human IL-23. The assay is described as follows: equilibrium binding ELISA on plates coated with human IL-23; potency against reference material; storage at 25H (25 C/60% RH), 12 months (second Binding ELISA row). On the procedure:
as §1, §2

Assay [3] has as its target T1, human IL-23. The assay is described as follows: equilibrium binding ELISA on plates coated with human IL-23; potency against reference material; storage at 25H (25 C/60% RH), 6 months. On the procedure:
as §1, §2
A general note: An ELISA detects its analyte on a solid surface through an enzyme-linked reagent.

In assay [4] the target is T1, human IL-23. Kind of assay: equilibrium binding ELISA on plates coated with human IL-23; potency against reference material; storage at 5 C, initial. On the procedure:
as §1, §2

The target in assay [5] is T1, human IL-23. The assay is described as follows: equilibrium binding ELISA on plates coated with human IL-23; potency against reference material; storage condition RH4 table, initial. On the procedure: as §1, §2
Assay [6] has as its target T1, human IL-23. Kind of assay: equilibrium binding ELISA on plates coated with human IL-23; potency against reference material; storage condition 25H table, initial. On the procedure: as §1, §2
For assay [7], the target named is T1, human IL-23. The assay is described as follows: equilibrium binding ELISA on plates coated with human IL-23; potency against reference material; storage at 5 C, 6 months. On the procedure: as §1, §2
For assay [8], the target named is T1, human IL-23. The assay is described as follows: equilibrium binding ELISA on plates coated with human IL-23; potency against reference material; storage at 5 C, 18 months (second Binding ELISA row). On the procedure: as §1, §2
For assay [9], the target named is T1, human IL-23. Kind of assay: equilibrium binding ELISA on plates coated with human IL-23; potency against reference material; storage at 5 C, 12 months (second Binding ELISA row). On the procedure:
as §1, §2

For assay [10], the target named is T1, human IL-23. The assay is described as follows: equilibrium binding ELISA on plates coated with human IL-23; potency against reference material; storage at RH4 (40 C/75% RH), 6 months. On the procedure:
as §1, §2

B1: humanized anti-IL-23p19 antibody 13B8-b (antibody, human IgG1, kappa, V domains shown)
VH: QVQLVQSGAEVKKPGASVKVSCKASGYIFITYWMTWVRQAPGQGLEWMGQIFPASGSADYNEKFEGRVTMTTDTSTSTAYMELRSLRSDDTAVYYCARGGGGFAYWGQGTLVTVSS
VL: DIQMTQSPSSLSASVGDRVTITCRTSENIYSYLAWYQQKPGKAPKLLIYNAKTLAEGVPSRFSGSGSGTDFTLTISSLQPEDFATYYCQHHYGIPFTFGQGTKVEIKR
notes: Made in CHO cells; Tested as a stored formulation (10 mM histidine pH 6.0, 7% sucrose, 0.05% polysorbate 80, about 100 mg/ml); also called hum13B8-b; anti-IL-23p19 mAb hum13B8-b
As for B1, the “Binding ELISA Potency relative to control [%]” value was found to be 103% in the assay with human IL-23 [1]; 105% with human IL-23 [2]; 99% with human IL-23 [3]; 112% with human IL-23 [4]; 112% with human IL-23 [5]; 112% with human IL-23 [6]. Besides, the “Binding ELISA Potency relative to control [%]” value with human IL-23 [7] is 96%; with human IL-23 [8] it was 100%; with human IL-23 [9] it was 98%; with human IL-23 [10], 104%.
